Results taken from patent US20190002404.

Tested on: purified, Flag-tagged recombinant PGAM1 (rPGAM1)

Row | Substance | in vitro kinase assay (Y26 phosphorylation) | in vitro kinase assay (tyrosine phosphorylation)
1 | FLT3 | FGFR1 (FIG. 13B), JAK2 (FIG. 13C) and FLT3 (data not shown) directly phosphorylated PGAM1 at Y26 in vitro | –
2 | active, recombinant JAK2 (rJAK2) | FGFR1 (FIG. 13B), JAK2 (FIG. 13C) and FLT3 (data not shown) directly phosphorylated PGAM1 at Y26 in vitro | –
3 | active, recombinant FGFR1 (rFGFR1) | FGFR1 (FIG. 13B), JAK2 (FIG. 13C) and FLT3 (data not shown) directly phosphorylated PGAM1 at Y26 in vitro | active, recombinant FGFR1 (rFGFR1) directly phosphorylated purified, Flag-tagged recombinant PGAM1 (rPGAM1) at tyrosine residues
